Measurements reported in publication PMC6838055, “Effective genome editing and identification of a regiospecific gallic acid 4-O-glycosyltransferase in pomegranate (Punica granatum L.)” (Horticulture Research, 2019).

Substrate: O=C(O)c1cc(O)c(O)c(O)c1
Test: HPLC product assay, steady-state kinetics
Assay type: biochemical, Punica granatum
Conditions: UDP-glucose co-substrate (0.6 mM in standard assay), 50 mM MES pH 5.5, 3 mM 2-mercaptoethanol, 30 °C, gallic acid 30-500 μM

B1: PgUGT72BD1 (Punica granatum) (protein)
chain: MAQVSTKPHVALFASPGIGHLIPVLQLGERFVSRHNFVVTVFVVVTDAATAESQLKQQSSYKNLLNVVLLPPVDLTSLTNKPLAILSQLVLIVRQSLPDLRSAIASMKSRPTALIVDLFGTEAFAIADEFHMLKYEFFTTNAWFLALTLYAPHVDREHEDDHILRHMPLHIPGCASILYEDTVDVYTDRNDKLLHDDYVRIGRRLAEADGILINTWESLEPKTLQALRDPKAFGRFSQVRILPIGPLVSGFQSFGSSQPKDDILQWLDDQPTESVLYVSFGSGGTLSADQLTELAWGLEQSQHRFIWVVRPPQENSACGAYFEQAKRADGTPEYLPDGFVTRTQKLGLVVPMWAPQREILAHPSIGGFLSHCGWNSTLESLINGVPLIAWPLYAEQTMNATMLTDQLGIAARSRELMPNGVLGRHEIEKMVRTVMNKEDAKGETIRARSQDLKRTALLAVAEGGSSYAALSQVAQECKIGLVGLKQRARGA
notes: codon-optimized ORF in pET28a, His-tagged, E. coli BL21(DE3), Ni-NTA purified; no signal peptide detected
  Km: 190 ± 70 µM
  kcat: (2.83 ± 0.5) × 10^−3 s^−1
